# Measurements taken from article PMC4678828, “Binding dynamics of a monomeric SSB protein to DNA: a single-molecule multi-process approach”.
# Where a chain is given by its changes, count along the chain named.
# Assays:
# A647-SsoSSB A114C [1] = biological target: T1, A647-SsoSSB A114C (Sulfolobus solfataricus, UniProt Q97W73 1-148, A114C); experiment: ensemble FRET; two-site model, second monomer; 50 mM Tris-HCl pH 7.6, 10 mM KCl, 5% glycerol, 0.1 mg/ml BSA, 5-50 nM DNA, 20 C (PIFE also 65 C); settings: protein: recombinant; chain copies: 2; label: 3' Cy3 (amino); single strand
# T1 sequence: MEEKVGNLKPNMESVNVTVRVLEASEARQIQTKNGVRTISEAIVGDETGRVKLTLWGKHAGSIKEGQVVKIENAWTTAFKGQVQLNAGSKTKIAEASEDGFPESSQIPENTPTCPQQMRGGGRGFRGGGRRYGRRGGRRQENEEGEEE
# A647-SsoSSB A114C [2] = biological target: T1, A647-SsoSSB A114C; experiment: ensemble FRET; two-site model, first monomer; 50 mM Tris-HCl pH 7.6, 10 mM KCl, 5% glycerol, 0.1 mg/ml BSA, 5-50 nM DNA, 20 C (PIFE also 65 C); settings: protein: recombinant; chain copies: 2; label: 3' Cy3 (amino); single strand
# A647-SsoSSB A114C [3] = biological target: T1, A647-SsoSSB A114C; experiment: ensemble FRET; Hill model, 1.8 ± 0.2; 50 mM Tris-HCl pH 7.6, 10 mM KCl, 5% glycerol, 0.1 mg/ml BSA, 5-50 nM DNA, 20 C (PIFE also 65 C); settings: protein: recombinant; chain copies: 2; label: 3' Cy3 (amino); single strand
# SsoSSB wild-type [4] = biological target: T2, SsoSSB wild-type (Sulfolobus solfataricus (Methods print …, UniProt Q97W73 1-148)); experiment: fluorescence titration (PIFE); 65 C; Hill 1.4 ± 0.2; 50 mM Tris-HCl pH 7.6, 10 mM KCl, 5% glycerol, 0.1 mg/ml BSA, 5-50 nM DNA, 20 C (PIFE also 65 C); settings: protein: recombinant; chain copies: 2; label: 3' Cy3 (amino); single strand
# T2 sequence: T1 sequence with C114A
# SsoSSB wild-type [5] = biological target: T2, SsoSSB wild-type; experiment: fluorescence titration (PIFE); 20 C, 10 mM KCl; Hill 1.8 ± 0.2; 50 mM Tris-HCl pH 7.6, 10 mM KCl, 5% glycerol, 0.1 mg/ml BSA, 5-50 nM DNA, 20 C (PIFE also 65 C); settings: protein: recombinant; chain copies: 2; label: 3' Cy3 (amino); single strand
# A647-SsoSSB A114C [6] = biological target: T1, A647-SsoSSB A114C; experiment: single-molecule FRET kinetics; first monomer; kon 0.032 nM-1 s-1, koff ~1.75 s-1; 10 mM KCl; 50 mM Tris-HCl pH 7.6, 10 mM KCl, 5% glycerol, 0.1 mg/ml BSA, 5-50 nM DNA, 20 C (PIFE also 65 C); settings: protein: recombinant; chain copies: 2; label: 5' biotin, 3' Cy3; single strand
# A647-SsoSSB A114C [7] = biological target: T1, A647-SsoSSB A114C; experiment: single-molecule FRET/PIFE/quenching kinetics; S4 pathway, two monomers in one step; kon 0.006 nM-1 s-1, koff 0.33 s-1; 50 mM Tris-HCl pH 7.6, 10 mM KCl, 5% glycerol, 0.1 mg/ml BSA, 5-50 nM DNA, 20 C (PIFE also 65 C); settings: protein: recombinant; chain copies: 2; label: 5' biotin, 3' Cy3; single strand
# A647-SsoSSB A114C [8] = biological target: T1, A647-SsoSSB A114C; experiment: single-molecule FRET/PIFE/quenching kinetics; second monomer; kon 0.16 nM-1 s-1, koff 0.31 s-1; 10 mM KCl; 50 mM Tris-HCl pH 7.6, 10 mM KCl, 5% glycerol, 0.1 mg/ml BSA, 5-50 nM DNA, 20 C (PIFE also 65 C); settings: protein: recombinant; chain copies: 2; label: 5' biotin, 3' Cy3; single strand
# A647-SsoSSB A114C [9] = biological target: T1, A647-SsoSSB A114C; experiment: fluorescence self-quenching titration; 10 mM KCl; Hill 1.4 ± 0.2 in text; Fig 2 legend gives 20 ± 1 nM, Hill 1.3; 50 mM Tris-HCl pH 7.6, 10 mM KCl, 5% glycerol, 0.1 mg/ml BSA, 5-50 nM DNA, 20 C (PIFE also 65 C); settings: protein: recombinant; chain copies: 2; single strand
# SsoSSB wild-type [10] = biological target: T2, SsoSSB wild-type; experiment: tryptophan fluorescence quenching; Hill model; 50 mM Tris-HCl pH 7.6, 10 mM KCl, 5% glycerol, 0.1 mg/ml BSA, 5-50 nM DNA, 20 C (PIFE also 65 C); settings: protein: recombinant; chain copies: 2; single strand
binder,measurement,setting,value
CCCCCCCCCCCC (ssDNA) [dC12Cy3],Kd,A647-SsoSSB A114C [1],2.8 ± 1 nM
same,Kd,A647-SsoSSB A114C [2],37 ± 4 nM
same,Kd,A647-SsoSSB A114C [3],24 ± 2 nM
same,Kd,SsoSSB wild-type [4],15 ± 1 nM
same,Kd,SsoSSB wild-type [5],9 ± 1 nM
CCCCCCCCCCCC (ssDNA) [BidC12Cy3],Kd,A647-SsoSSB A114C [6],54 ± 2 nM
same,Kd,A647-SsoSSB A114C [7],~57 nM
same,Kd,A647-SsoSSB A114C [8],~2 nM
CCCCCCCCCCCC (ssDNA) [dC12],Kd,A647-SsoSSB A114C [9],22 ± 1 nM
TTTTTT (ssDNA) [dT6],Kd,SsoSSB wild-type [10],143 ± 95 nM
